# Molecular target: Cdc13 amino-terminus through the DBD (N) (S. cerevisiae)
# Assay: fluorescence polarisation
substance,measurement,value
Hsp82 (yeast Hsp90 molecular chaperone) (from UniProt P02829 1-709) (natural protein),Kd,35 nM

# Source: publication PMC2744139
